Test results taken from patent US9850300B2, “Compositions and methods relating to inhibiting cancer cell growth and/or proliferation” (The Regents of the University of Michigan, priority 2013, dated 2017).

Assays:
Type in all cases: cell-based
cellular migration = experiment: Transwell migration assay with EGFL6 protein as chemoattractant
[1] = system: Human ovarian cancer ascites cells; experiment: Tumor sphere assay, ALDH+ cell percentages; details: EGFL6 treatment
Excerpt: It has been shown that aldehyde dehydrogenase enzymatic activity (ALDH) is an excellent marker of ovarian CSCs in SKOV3 cells and primary patient samples (see, e.g., Silva, I. A., et al. Cancer Res (2011); Landen, C. N., Jr., et al. Mol Cancer Ther 9, 3186-3199 (2010); Steg, A. D., et al. Clin Cancer Res 18, 869-881 (2012); Kryczek, I., et al. Int J Cancer 130, 29-39 (2012); Deng, S., et al. PLoS ONE 5, e10277 (2010)). The impact of EGFL6 treatment on the percentage of ALDH^+ CSCs in vitro was next assessed. […] However, given the increase in total cell numbers, the absolute ALDH^+ CSC number remained unchanged (FIG. 3Aiii). […] Human ovarian cancer ascites cells were also treated with EGFL6 in a tumor sphere assay. Once again, treatment with EGLF6 was associated with a reduction in ALDH^+ cell percentages in tumor spheres (FIG. 3B).
Sphere culture was performed as previously described (see, e.g., Silva, I. A., et al. Cancer Res (2011)). Briefly, single cell suspensions were plated in triplicate in ultra-low attachment plates (Corning, Acton, Mass., USA) in serum-free MEBM-2 (Lonza). Cells were plated at the indicated density and from 1,000-10,000 cells/ml in subsequent passage. Sphere formation was assessed 2 weeks after seeding cells.

SKOV3 cells = experiment: Cell cycle analysis (propidium iodine, FACS); details: EGFL6 treatment 24 hrs after serum starvation
Procedure: SKOV3 cells were seeded at 5×10^5 in 6 cm culture plates, synchronized by serum starvation for 24 hrs, then treated with EGFL6 or control for 24 hrs. Cells were fixed with ice-cold alcohol, washed with PBS, and stained with propidium iodine ([…]) and RNase A (100 ug/ml) in PBS for 1 hr at 30° C. Cell cycle profile was acquired by FACS analysis and data were analyzed by Flowjo.

ALDH+ and ALDH− cells = experiment: Microfluidics device migration of individual cells in an EGFL6 gradient
Excerpt: EGF factors have been reported to enhance the migration and invasion of various cell populations. The impact of EGFL6 on cellular migration was therefore assessed. […] Finally, a novel microfluidics device was used to determine the impact of EGFL6 on the migration of individual cells. To more specifically assess the impact on ovarian CSC versus progenitors, ALDH+ and ALDH− cells were sorted and loaded into individual channels of a microfluidics device in which migration could be directly monitored. EGFL6 was added to a reservoir at one side of the device to create a gradient of expression. EGFL6 had no impact on the migration of ALDH(−) cells.

[2] = system: SKOV3, OVCAR3, OVCAR8, and primary ovarian tumor cells; experiment: EGFL6 treatment of ovarian cancer cells, total cell number
Excerpt: EGFL6 was next expressed in HEK293 cells, NIH3T3 cells, and SKOV3 ovarian cancer cells. Western blot analysis confirmed secretion of EGLF6 in both transient and stable transfectants (FIG. 2Ai, 2D) from all three cell lines. EGFL6 protein was purified to >95% purity (FIG. 2Aii) and treated ovarian cancer cells with either purified EGFL6, supernatant from EGFL6-expressing HEK293 cells, or supernatant from control transfected HEK293 cells. Purified fusion protein and supernatant from EGFL6 transfected cells had similar effects. EGFL6 treatment of SKOV3, OVCAR3, OVCAR8, and primary ovarian tumor cells was associated with a 30-40% increase in total cell number (FIG. 2B).
SKOV3, A2008, and A2780 were maintained in RPMI-1640, supplemented with 10% FBS with 1% Penicillin/Streptomycin, and cultured in humidified atmosphere of 5% CO2 at 37° C. For all in vitro cell culture experiments, isolated cells were allow to recover overnight following FACS, prior to treatment. Infantile Hemangioma Stem cells were maintained in EBM-2 medium with growth factor supplement cocktails in culture plates coated with fibronectin. For Echistatin and EGFL6 treatment, cells were pretreated with Echistatin (Sigma, 100 nM) for 24 hours prior to EGFL6 treatment. All transfections were performed using FuGene6 reagent (Promega) per company protocol. […]

[3] = system: ALDH+ and ALDH(−) SKOV3 cells; experiment: Single cell microfluidic culture, cell division type
Procedure: To determine if EGFL6 is promoting asymmetric division, a novel microfluidic culture device was used which allows the isolation, confirmation, and culture of individual cells. ALDH^+ and ALDH^(−) SKOV3 cells were FACS-sorted into separate microfluidic devices (see, e.g., Chung, J., Kim, Y. J. & Yoon, E. Appl Phys Lett 98, 123701 (2011)), and confirmed ALDH expression with fluorescent microscopy (FIG. 3Di). Cells were then mock-treated or treated with EGFL6. After 48 hours, live cells were stained using ALDEFLUOR and re-imaged using fluorescent microscopy (FIG. 3Dii, right panels). Cell divisions, type of daughter cell (ALDH^(−) or ALDH^+), and total cell number were assessed. […] Production of ALDH^+ daughter cells from ALDH^(−) cells was not observed. […] This was associated with a statistically significant increase in total cell numbers; 6.5 versus 3.7 average cells/well and total 325 vs. 185 total cells/50 captured cells in EGFL6 treated and control ALDH^(+) cells respectively.

[4] = ALDH+ SKOV3 cells, EGFL6 treated

B1: EGFL6: recombinant EGFL6-flag protein from transfected HEK293 cells, used purified or as 72 hr supernatant (protein)
chain: NAASARHHGLLASARQPGVCHYGTKLACCYGWRRNSKGVCEATCEPGCKFGECVGPNKCRCFPGYTGKTCSQDVNECGMKPRPCQHRCVNTHGSYKCFCLSGHMLMPDATCVNSRTCAMINCQYSCEDTEEGPQCLCPSSGLRLAPNGRDCLDIDECASGKVICPYNRRCVNTFGSYYCKCHIGFELQYISGRYDCIDINECTMDSHTCSHHANCFNTQGSFKCKCKQGYKGNGLRCSAIPENSVKEVLRAPGTIKDRIKKLLAHKNSMKKKAKIKNVTPEPTRTPTPKVNLQPFNYEEIVSRGGNSHGGKKGNEEKMKEGLEDEKREEKALKNDIEERSLRGDVFFPKVNEAGEFGLILVQRKALTSKLEHKDLNISVDCSFNHGICDWKQDREDDFDWNPADRDNAIGFYMAVPALAGHKKDIGRLKLLLPDLQPQSNFCLLFDYRLAGDKVGKLRVFVKNSNNALAWEKTTSEDEKWKTGKIQLYQGTDATKSIIFEAERGKGKTGEIAVDGVLLVSGLCPDSLLSVDD
cellular migration in transwell assay (cellular migration): increased cellular migration
ALDH+ cell percentages in tumor spheres [1]: reduction
decrease in the number of cells in G1 phase (SKOV3 cells): ~20%
number of cells in S and G2/M phases (SKOV3 cells): concomitant increase
migration of ALDH(−) cells (ALDH+ and ALDH− cells): no impact
migration of ALDH+ cells (ALDH+ and ALDH− cells): robust migration
increase in total cell number ([2]; EGFL6 treatment vs control supernatant): 30-40%
total cell numbers ([2]; increasing concentrations of EGFL6): increasing total cell numbers
number or type of cell divisions of ALDH(−) cells ([3]; ALDH(−) SKOV3 cells, 48 hours): no significant impact
increase in the percentage of ALDH+ cells undergoing asymmetric division ([3]; ALDH+ SKOV3 cells, 48 hours, vs mock-treated): 2 fold
average cells/well [3, 4]: 6.5 cells/well
total cells/50 captured cells [3, 4]: 325 total cells/50 captured cells
